{"source": "patent US20080279856A1", "about": "“Inhibition of Bradykinin Release” (Novo Nordisk Pharmaceuticals, Inc., priority 1999, published 2008)", "molecules": {"B1": {"name": "HBP: Native human heparin-binding protein, mature form with the amino acid sequence SEQ ID NO:1 (protein, listed as Homo sapiens)", "chain": "IVGGRKARPRQFPFLASIQNQGRHFCGGALIHARFVMTAASCFQSQNPGVSTVVLGAYDLRRRERQSRQTFSISSMSENGYDPQQNLNDLMLLQLDREANLTSSVTILPLPLQNATVEAGTRCQVAGWGSQRSGGRLSRFPRFVNVTVTPEDQCRPNNVCTGVLTRRGGICNGDGGTPLVCEGLAHGVASFSLGPCGRGPDFFTRVALFRDWIDGVLNNPGPGPA"}}, "key": {"[1]": {"system": "EC monolayers (HUVEC or BAEC)", "experiment": "Transendothelial electrical resistance (TEER) of EC monolayers after HBP stimulation", "assay_type": "cell-based, human, bovine", "description": "(§1) Human umbilical vein endothelial cells (HUVEC) are isolated from fresh umbilical cords as described by Jaffe et al., 1973, J. Clin. Invest. 52:2745-2756), and bovine aorta endothelial cells (BAEC) are isolated according to the method of Booyse et al., 1975, Thromb. Diath. Haemmorrh. 24:825-839) with a few modifications. Briefly, the lumen of the umbilical vein or bovine aorta is incubated with a 0.25% collagenase solution for 10 min, and detached endothelial cells washed out with PBS. Harvested cells are pelleted and resuspended in culture medium, seeded in tissue culture flasks and incubated under standard conditions. Medium is changed every 48 h until cultures have reached confluence (3-5 days). HUVEC or BAEC in the first to fifth passages are used in the experiments. Identification and purity determination of ECs are based on cobblestone morphology and characterization by factor VIII/vWf antigen (Booyse et al., 1975, Thromb. Diath. Haemmorrh. 24:825-839). Staining for factor VIII/vWf factor is homogeneous in the cells.\n(§2) Cultured EC are detached by brief (2 min) trypsin-EDTA treatment (0.25% trypsin/0.01% EDTA) and replated onto either 0.2 μm pore size Anopore inorganic membrane or 3.0 μm pore size polycarbonate filters (Tissue Culture inserts, 10 mm; NUNC, Roskilde, Denmark). […] The ECs are grown to confluent monolayers, as assessed by daily microscopic observation and measurement of the electrical resistance across the monolayer.\nFor measurement of electrical resistance across the EC monolayer, the filter insert is transferred to a resistance measurement chamber (ENDOHM-12; World Precision Instruments, Sarasota, Fla., USA) modified so as to assure exact positioning of the electrodes in relation to each other and to the filter insert during repeated measurements. […] Direct readings of the electrical resistance are given by an ohmmeter (EVOM; World Precision Instruments, Sarasota, Fla., USA) connected to the electrodes of the resistance chamber. […]"}, "[2]": {"system": "EC monolayers (HUVEC or BAEC)", "experiment": "Albumin clearance (Evans blue dye-conjugated albumin) across EC monolayers after HBP stimulation", "assay_type": "cell-based, human, bovine", "settings": "HBP 75 μg/ml; over a 60 min period", "description": "as §1, with “HUVEC or BAEC in the first to fifth passages are used in the experiments. Identification and purity determination of ECs are based on cobblestone morphology and characterization by factor VIII/vWf antigen (Booyse et al., 1975, Thromb. Diath. Haemmorrh. 24:825-839). Staining for factor VIII/vWf factor is homogeneous in the cells.” left out\nas §2\nEvans blue dye-conjugated albumin (EBA) is used as a marker for macromolecular permeability of the EC monolayers. […] In experiments where albumin permeability is analyzed, the culture medium in the upper compartment is exchanged for medium containing EBA. […]"}, "[3]": {"experiment": "3H-LPS binding to HBP, scintillation proximity assay", "settings": "saturation, SPA", "description": "The affinity for lipopolysaccharide (3H-LPS) is measured by scintillation proximity assay technology (SPA) as described (Linde, V., Bjørn, S., Kastrup, J. S., and Flodgaard, H., 2000, Biotechniques 28:218-222). All samples are repeated in triplicates."}}, "data": [{"molecule": "B1", "values": [{"measurement": "onset of decrease in transendothelial resistance", "setting": "[1]; HBP 75 μg/ml to upper compartment", "value": "within one min"}, {"measurement": "decrease in transendothelial resistance, maximum", "setting": "[1]; HBP 75 μg/ml to upper compartment, after 15 min", "value": "30%±3%"}, {"measurement": "dose dependence of EC responses (TEER)", "setting": "[1]; HBP 25, 50 and 75 μg/ml", "value": "clearly dose-dependent"}, {"measurement": "net albumin clearance volume", "setting": "[2]", "value": "20.4 ± 3.4", "unit": "µL"}, {"measurement": "apparent Kd for 3H-LPS", "setting": "[3]", "value": "approximately 0.7 μg/mL"}]}]}
